Reference: US20150030599A1 (SAMSUNG ELECTRONICS, published 2015)

Target: T1, EGFR-Fc (#344-ER, R&D Systems) (UniProt P00533 25-645)
T1 construct: Bought reagent; not shown: Fc part of the bought fusion protein is not described
Experiment: SPR (Biacore T100), ME22S captured on human Fab binder, EGFR-Fc injected
Description: In addition, the affinities of the prepared anti-c-Met/anti-EGFR bispecific antibody to the two types of antigens, c-Met and EGFR, were each identified using Biacore T100 (GE). A human Fab binder (GE Healthcare) was immobilized at the surface of a CM5 chip (#BR-1005-30, GE) according to the manufacturer's specifications. […] 10 mM Glycine-HCl (pH 1.5) solution was injected thereto to regenerate the surface. In order to measure affinity, the data obtained from this experiment was fitted using BIAevaluation software (GE Healthcare, Biacore T100 evaluation software).

Kd: 490 pM
koff: 9.2e-05 s⁻¹
kon: 190000 M⁻¹ s⁻¹
B1: anti-c-Met/anti-EGFR bispecific antibody ME22S (bispecific antibody)
heavy: EVQLVESGGGLVQPGGSLRLSCAASGFTFTDYYMSWVRQAPGKGLEWLGFIRNKANGYTTEYSASVKGRFTISRDNSKNTLYLQMNSLRAEDTAVYYCARDNWFAYWGQGTLVTVSSASTKGPSVFPLAPCSRSTSESTAALGCLVKDYFPEPVTVSWNSGALTSGVHTFPAVLQSSGLYSLSSVVTVPSSNFGTQTYTCNVDHKPSNTKVDKTVERKCCVECPPCPAPPVAGPSVFLFPPKPKDTLMISRTPEVTCVVVDVSHEDPEVQFNWYVDGVEVHNAKTKPREEQFNSTFRVVSVLTVVHQDWLNGKEYKCKVSNKGLPAPIEKTISKTKGQPREPQVYTLPPSREEMTKNQVSLTCLVKGFYPSDIAVEWESNGQPENNYKTTPPMLDSDGSFFLYSKLTVDKSRWQQGNVFSCSVMHEALHNHYTQKSLSLSPGKGGGGSGGGGSEVQLLESGGGLVQPGGSLRLSCAASGFTFSNYDMSWVRQAPGKCLEWVSGISHSSGSKYYADSVKGRFTISRDNSKNTLYLQMNSLRAEDTAVYYCAKDATPRPLKPFDYWGQGTLVTVSSGGGGSGGGGSGGGGSQSVLTQPPSASGTPGQRVTISCTGSSSNIGNNDVSWYQQLPGTAPKLLIYDDNKRPSGVPDRFSGSKSGTSASLAISGLRSEDEADYYCGSWDASLNAYVFGCGTKLTVLG
light: DIQMTQSPSSLSASVGDRVTITCKSSQSLLASGNQNNYLAWYQQKPGKAPKMLIIWASTRVSGVPSRFSGSGSGTDFTLTISSLQPEDFATYYCQQSYSRPYTFGQGTKVEIKRTVAAPSVFIFPPSDEQLKSGTASVVCLLNNFYPREAKVQWKVDNALQSGNSQESVTEQDSKDSTYSLSSTLTLSKADYEKHKVYACEVTHQGLSSPVTKSFNRGEC
notes: The modified anti-EGFR scFv is fused through (G4S)2 to the C-terminus of the Fc of L3-1Y-IgG2
